Test results reported in the domain aggregation screens of Martell et al. (2025).

Assay: soluble fraction after stress (log2 fold change); higher = more stays soluble; pooled small domains, quantitative proteomics
Conditions: stress: pH 4
Procedure, shortened: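 Pooled custom libraries of small protein domains were stressed at pH 4 and then measured by high-throughput quantitative proteomics. The fold change in the amount of each domain that stays soluble after the acid stress serves as a measure of aggregation propensity. Fold changes are given on a log2 scale, and higher values mean more of the domain stayed soluble.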

Row | Sequence | soluble fraction (log2)
1 | HMTELLTPKQRQVFELALREGYYDVPRRTSITEMARLLGVAKSTLSAQMHRMEATVMSTFAEEIRKQ | 0.0506
2 | HMTENIPPVKIEEMRQKWQDIVLLHGVTSGRKIKSGQATYIWLYRNDQNWLLTFNSRHLSQPQV | -0.263
3 | HMTEPKILTAEESQRLDLILVQQWPELGRRALRELVQQGGVRINGELALKAGQYVQAGERVEVAVP | -0.879
4 | HMTEQKNNEQQNAVNEKKQALKQLMEKGKEKGSLSYNEVNALLDKLEFTEDQKAIVYDQLHSEDIELQ | 0.22
5 | HMTEQLTLVGKTGVTTTDLRPSGKVEVDGKRYDAVADNGAFISKGAHIKVVRYVTGQVYVVPTD | -0.146
6 | HMTERIRLHDDIGSWVEKHGATRSALIPVLQGIQRSYNEISEYAMQEVADRLDIHPVEVYSVVSFYSF | 0.103
7 | HMTESFEFTMNDLVQNNLIMGSGAKERRIAVGEALGIGYTNAKQFLSRLNHYGITRKEFDDEIEKVNQN | -0.217
8 | HMTETEIVIGGKYRHYKGGEYELVSIVKHSETLEELVIYKSLSTGEMWARPKSLFVGLVDGQPRYTL | -1.39
9 | HMTETIPVSERLFRYLFEEKGKRVQKIQQTSHARVRMERSPYSVVVSGTKDAVEAAMESLKATEKELLEA | 0.321
10 | HMTETPDDLLAALKKNKKAQATFDAFSPSNKKEYILWITEAKTEATRTKRLETAIEWMSEGKARNW | 0.0435
11 | HMTETTTVPKLKGLTKDEAEDAAKSSKIKLEFIDEISKTVEAGVIIKQEKDEGETVNAGDTVKVYVSIGT | -0.0593
12 | HMTEWSIHEVAQRSGVTTRTLRHYDAIGILSPTRTGANGYRYYGPEALVRLQRILLLRDLGLALSDIAE | -1.66
13 | HMTEYFTIESQEGERIDRYLSEELEDKSRSYIQKLIRDGHVLVDGKTVKAGYRLVAGDNIAITLPEI | -0.133
14 | HMTFAPTAIPSLTRPMEELMSWSFTPNEAFILSRINGLWDVRSIAKISPFPEGEVLRVFEKLHDGGLIRW | -1.54
15 | HMTFNEPSPKEIMDYSLSRGYKVDADAFIDFYRGKAKAYGKEGLWLDGRGRLVKDWRAKLRVVWFKDENKL | -1.09
16 | HMTGDIGAEAAKAAALAHAGVTESQTAKMKVDRDWDDGRLEYDVEFDVGRTEYEYTIDGVTGAVLEYEQDI | 0.0208
17 | HMTGDIIKQERKKKNLTQIELAKKVGISRNALINYEAGTRIPPISVQLKLADVLGIDILDLK | -0.0221
18 | HMTGDISRALDQLPADMRTVLILYALEKQRYEDIAQITGVSVGTVKSRLNRARQKLAAILANQREQNE | -0.101
19 | HMTGDNQTIGGGGFHHVAIRAHDFDASVKFYGETLGFREKIAWGEGDKRAIMMDTGDGNYIEIF | -0.0678
20 | HMTGEDIKKVILREYAREKSLLSIFHELSKVNSNVTLEVIKDIITNIDKLPNDLLQYFKEESSFYQKNKN | -1.35
21 | HMTGGIWVQIQGAVERPGVYSLPRDSRLKDLLEAAGGFGRDADTEKVNQAARLEDGAMYRVPRQGEG | 0.164
22 | HMTGGLLVHVAGAVGAPGVVSLPEGARVVDAIEAAGGAREDADTDQLNLARPVVDGEQVRVPVVGEVLE | 0.22
23 | HMTGINMSYEEYKAMADIIVPLIKAGHSPYHIVTNHPELNISEKTLYNYIENGIFREFGLLDINL | -1.91
24 | HMTGIRVYPNPTSSELRFSVATDAALYDATGARLRVVRGSDMMDIRDLASGTYYVRFADGSTQSVVVT | -0.0136
25 | HMTGKLGKIILQPKQTVYGITKKYQISESELRRLNPQLDSHLKIGDEVILPAENIKKFGGNQPVAVS | ≥ 0.43

Row | Sequence | soluble fraction (log2)
26 | HMTGKTTLEYLNPLLERGIPVWDYLAKASGKAKEEVQEMVSKGLVPGAEAAKAIADYMGAEFAGSMA | -0.343
27 | HMTGKVKWYDADKGFGFVTEDGGRDVYVRKSALPQGVETLKAGQRLEFGIAEGRRGPQALSVR | -0.0382
28 | HMTGLFSPTEQTRHSKTGATLYSVKLAERIERNAFQSLKKRAKEHDGYYSSFTRSFLFDTPEDAEAFRGT | -0.0888
29 | HMTGMEASLSKLLQGEQFADLRKALIDKGIRKLEAFKRLNLWVFMNRNRLYSIGQRQTVYSTLQRALASE | 0.085
30 | HMTGREIDQLFSVVNDLKAKGVGMVFISHHLDEIARIADSVSVLRDGGFVAEVPASTPEKKLVTLMVGRDI | -0.369
31 | HMTGWINVDKNWYYMNNSGSMARGMINVNNVSYYLDENGKMLSNTTVNVNGTDYRIDASGAMSQI | -0.153
32 | HMTHEIKIKSHSLFASEGTKYQWYLNNIKINDATSQELEITSPGIYKLEMTNFDGDVIEKQIIVGLTNS | -1.52
33 | HMTHHGHSIKRIRDMLGIKQETLAAELNMTQQAFSKLEQKEQIEDEMLDKIAKILHVSTEALKT | -0.459
34 | HMTHPAHLARIGALIRSARQHEGLTQAQLAELLGTSQSAIHRIEQGGQNITLDMLTRISAALDSEIVTIG | -1
35 | HMTHPQVEAYLDDLARMLADIDPGERDDILASVREHLDAEIAAGHGSDAVVNATLLRLGPPEQVAAAARTN | -0.899
36 | HMTIAFPSNDVDAVVGYFESRGFDRTASISTATVILQQAKIDGVKVFELIDTLQGMDKVQLSYIVTEILN | -0.0582
37 | HMTIATLGERIRKLRKERGLTLAELAGDKLSKGMLSLIENNRAKPSMESLEYIAKRLGVEPAELLE | 0.297
38 | HMTIENTDTFLETLWEQVQRASVDENGIITSRVLIWDEGTKLDEILSWFDKRHSLGALYLQFG | -1.74
39 | HMTIFGWQTDETGKWYRNADGTFFEAGWKEIDGAKYYFDENGYVKTGWLELDGKDYYFDEEGRYDSSKVR | -1.69
40 | HMTIGLLISKARTNSGLTQAELATRAGTSQAAIARYESDRVSPSVSTLERVLRAAGEELVISSS | -0.0184
41 | HMTINPFSTLAVRELEILHYLLNGHRTKEIATNLGLKMNTVSTIKSNIFEKVKADSFTHLLQLAHVHQIS | -0.0952
42 | HMTIQNSILDEIPNIGASRKRAILEAFGSVHRLRKASPEMISAKVEGIGPEMAQAIHDYLVKHPAT | 0.223
43 | HMTISAQAITPRLEVIKNFVLMEEWDAAQTQLEKLRSFTEIWSLDPLFSAMKKKDGQKISDWITGFIKDNM | -1.69
44 | HMTISDEAMQAGRDAFIQALVAMGAEKNADAMASIEKALSADPGNKEYLATRDLIKKSMGMKK | 0.138
45 | HMTISGSDLKAQREALNIPLERIAKETRIRLSILQDLEDEEYSELSSSAQTKGFLRLYADYLSSHKQRLG | 0.0379
46 | HMTITDDETHKVLEEGASRMSEGLTFRDLVDLDRLHLTARGVIQKVLNENRIDADVDTIANMAQKLVARVS | -0.567
47 | HMTKAEVLLDLQQRIISEEFLPGSWLVERDLSSEYGLSRTPIREILNKLVILGLISVQKNRGYQVR | -0.792
48 | HMTKAILTANDVRNGDIVFWTADQRWSTSIDDAAIGYGKDDTDQLADAGKQAEAANTVVGAYLIALR | -1.14
49 | HMTKASEELYFRLKEELGTGVIVEHKKYGEGVVTQLDDRLVHIMFQDDTLRMMDLKILANAGLLKVK | -1.87
50 | HMTKDYVVIYEGLAQTEAVEILGKLQEMGVSAKVDHNDSILVLKDEEDQIRMALATEGYPKS | -0.803

Row | Sequence | soluble fraction (log2)
51 | HMTKEEKEKREKYEKLMKKADELVTAKNHKEAVTVLGQAKAYANPQQTKEIEEKIKAQTAELDKG | 0.24
52 | HMTKGVQMFAEQLKRTRQSRHYSQAEIASKLGVTQQAIAKWETGVSTPSPTSISKLSDILGISTDVLLKGA | ≥ 0.43
53 | HMTKIAFPQMLNKYRLQKNLTMEQLAEEVGKTKSTISKWEAGTRSPKIYEIEEIAKYFGVEPQTMMF | -0.548
54 | HMTKINAPMPGNILDVKVNVGDHVEANQLVLMLEAMKMENEIFTPVAGTVVGVHVKKGDSVNSDDLLISI | -1.09
55 | HMTKKEFLDILTESLAGNVPASEIEENIRYYKDYIENGEESEEKALEQLGDPHLIARTIIDSFIA | -1.46
56 | HMTKLLSALQADKFAKKLANDTNFGSNFARMGESAMDFTNRLVEELQRDEGKVANYMPYLTKLGF | -0.305
57 | HMTKLSPKEKSILHIIGDNAGIKSGQIAKRLDIPSPTVKRILSDLVSQNLIEKFGTGPGTNYSI | 0.22
58 | HMTKLTTDERSVYLHIQNKPGVSASSIREALGYKKSKLTSILAQLLEVHKIIDTEGTGKSLKYIL | 0.091
59 | HMTKMTPNRQLVLSVLQSSGKPLSAYELLDRLREQGTQWQPPTAYRALDYLVEQGLAHYLQSIQKYV | -0.317
60 | HMTKNEFLASFQNELQKRHIPDWEDVVSEYEQHFALKQADGFSEEEIAAKLGAPAELAAQFEA | -0.0811
61 | HMTKQIILVHVAGKVKKPDVYPLLQGSRVADAIKAAGGAKKGVELNDINLARVLIDGEQVFVGYVPE | -0.277
62 | HMTKQRSAIMNLLAERNTPLTAEEIGEAIAPSYPKLALSTVYRNLELFTNAGLLEKSFFQDGITRYSLTK | -0.242
63 | HMTKRTEPSILQNFDTEIAELIAKNRGISIMDALRIFLASKTHEMLENDEMKLWYFSPLAVFDMWENE | -0.61
64 | HMTKSIDFDFREDGVYIKADKDVTIVDIVTKIDLRRIQSVDLTKIKQMLEIGSLDNWIKIAEPQMEK | -1.44
65 | HMTKSTLQRQKIIADLIESGNISSQNQLKGLLKKNSLLITQATLSRDLSELGAIKKRQKDGLLVYVLPK | -0.0863
66 | HMTKTKADKIDYAIGDSGTEPPTEDKWTDLAHLPLIKAGQFQWTRRTEYYSDGSTAVSYNIAKSE | 0.156
67 | HMTKYKEIVDQLRTNIYEGVFPALSKLPEQTALAKRFQTSRMTIQKALNQLKQEGLISTKRGHGTYVNSAT | 0.021
68 | HMTKYVEGQKYVFEFRDGTITIGTYLRTGEGNIYIKDLSGEDIYIPKIMIAQIHLATDDNVKGDEFWF | -1.17
69 | HMTLDSLEKLSVNDLEKMLVNMPVGYKTIFLLSVIDEYSHKEIGELLGITPETSRSQLFRAIKWIKTNIF | -0.706
70 | HMTLGARTLAAIQSLPKVQQAVFTMKHFEGLKYREISQITGTSEGALKASYHIALEKIKAFLREK | -0.443
71 | HMTLGEHILQYRTARGWSQEDLANALEVSRQSVSKWETDASTPELDKIVRLSEIFQVSIDELVTGKA | 0.0683
72 | HMTLGENLQNLRKEAGLSQEQVAQQLFVSRQTVSKWENNLAEPGVENLKALARLYGVTLDRLVGM | -0.323
73 | HMTLKVQLSEISKMVSLSYIAKKYFNKSQSWLSQRINGNTIHNKPAKFTSEELATLQFALKDIGNILNSTV | -0.658
74 | HMTLLVPASKEAILGGLAKIDALKVILKPEKDYSKTHAMTIGTKDEVIAKLDSFLSGMDSEKNQVLIQEYM | -0.135
75 | HMTLSDIGHAVRTRRTELGLSQVQLARLSGLSRQTLVGLENGTLNDLGINRVAQLLAVLGLDAP | -0.203
